According to IntAct's records for PubMed 29039417:

B1: BBSome complex member BBS5 (Homo sapiens), Q8N3I7 (parent)
chain: MSVLDALWEDRDVRFDLSAQQMKTRPGEVLIDCLDSIEDTKGNNGDRGRLLVTNLRILWHSLALSRVNVSVGYNCILNITTRTANSKLRGQTEALYILTKCNSTRFEFIFTNLVPGSPRLFTSVMAVHRAYETSKMYRDFKLRSALIQNKQLRLLPQEHVYDKINGVWNLSSDQGNLGTFFITNVRIVWHANMNDSFNVSIPYLQIRSIKIRDSKFGLALVIESSQQSGGYVLGFKIDPVEKLQESVKEINSLHKVYSASPIFGVDYEMEEKPQPLEALTVEQIQDDVEIDSDGHTDAFVAYFADGNKQQDREPVFSEELGLAIEKLKDGFTLQGLWEVMS
partner: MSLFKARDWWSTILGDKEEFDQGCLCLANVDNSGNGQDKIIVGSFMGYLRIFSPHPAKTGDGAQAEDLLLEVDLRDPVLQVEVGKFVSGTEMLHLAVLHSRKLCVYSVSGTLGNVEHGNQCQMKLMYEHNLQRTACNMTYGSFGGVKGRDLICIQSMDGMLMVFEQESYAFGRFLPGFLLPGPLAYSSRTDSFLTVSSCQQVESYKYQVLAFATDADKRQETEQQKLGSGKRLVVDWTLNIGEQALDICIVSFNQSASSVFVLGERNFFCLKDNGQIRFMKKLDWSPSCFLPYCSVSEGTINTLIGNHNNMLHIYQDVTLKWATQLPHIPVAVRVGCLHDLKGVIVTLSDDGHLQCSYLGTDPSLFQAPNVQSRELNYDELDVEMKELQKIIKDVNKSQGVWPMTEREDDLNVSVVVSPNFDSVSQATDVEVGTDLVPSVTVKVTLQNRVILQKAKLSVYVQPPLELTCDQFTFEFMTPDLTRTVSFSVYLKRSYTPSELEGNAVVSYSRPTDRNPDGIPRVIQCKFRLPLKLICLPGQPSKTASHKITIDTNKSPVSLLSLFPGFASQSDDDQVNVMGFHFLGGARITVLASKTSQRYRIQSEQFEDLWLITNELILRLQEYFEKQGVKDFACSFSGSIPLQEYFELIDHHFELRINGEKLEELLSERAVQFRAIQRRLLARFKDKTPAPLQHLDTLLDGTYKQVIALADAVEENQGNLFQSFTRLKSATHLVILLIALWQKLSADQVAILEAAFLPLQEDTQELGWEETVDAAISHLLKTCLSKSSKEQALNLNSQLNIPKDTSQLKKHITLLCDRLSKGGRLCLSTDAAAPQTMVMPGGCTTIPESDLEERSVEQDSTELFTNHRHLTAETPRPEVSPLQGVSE

Variants of: B1
Conditions: with pthb1_human BBS9, Q3SYG4

Effect of a mutation on the interaction, with no effect:
MSVLDALWEDRDVRFDLSAQQMKTRPGEVLIDCLDSIEDTKGNNGDRGRLLVTNLRILWHSLALSRVNVSVGYNCILNITTRTANSKLRGQTEALYILTKCNSTRFEFIFTNLVPGSPRLFTSVMAVHRAYETSKMYRDFKLRSALIQNKQLRLLPQEHVYDKINGVWNLSSDQGNLGTFFITNVREVWHANMNDSFNVSIPYLQIRSIKIRDSKFGLALVIESSQQSGGYVLGFKIDPVEKLQESVKEINSLHKVYSASPIFGVDYEMEEKPQPLEALTVEQIQDDVEIDSDGHTDAFVAYFADGNKQQDREPVFSEELGLAIEKLKDGFTLQGLWEVMS [I187E]
MSVLDALWEDRDVRFDLSAQQMKTRPGEVLIDCLDSIEDTKGNNGDRGRLLVTNLRILWHSLALSRVNVSVGYNCILNITTRTANSKLRGQTEALYILTKCNSTRFEFIFTNLVPGSPRLFTSVMAVHRAYETSKMYRDFKLRSALIQNKQLRLLPQEHVYDKINGVWNLSSDQGNLGTFFITNVRKVWHANMNDSFNVSIPYLQIRSIKIRDSKFGLALVIESSQQSGGYVLGFKIDPVEKLQESVKEINSLHKVYSASPIFGVDYEMEEKPQPLEALTVEQIQDDVEIDSDGHTDAFVAYFADGNKQQDREPVFSEELGLAIEKLKDGFTLQGLWEVMS [I187K]
MSVLDALWEDRDVRFDLSAQQMKTRPGEVLIDCLDSIEDTKGNNGDRGRLLVTNLRILWHSLALSRVNVSVGYNCILNITTRTANSKLRGQTEALYILTKCNSTRFEFIFTNLVPGSPRLFTSVMAVHRAYETSKMYRDFKLRSALIQNKQLRLLPQEHVYDKINGVWNLSSDQGNLGTFFITNVRIAWHANMNDSFNVSIPYLQIRSIKIRDSKFGLALVIESSQQSGGYVLGFKIDPVEKLQESVKEINSLHKVYSASPIFGVDYEMEEKPQPLEALTVEQIQDDVEIDSDGHTDAFVAYFADGNKQQDREPVFSEELGLAIEKLKDGFTLQGLWEVMS [V188A]
MSVLDALWEDRDVRFDLSAQQMKTRPGEVLIDCLDSIEDTKGNNGDRGRLLVTNLRILWHSLALSRVNVSVGYNCILNITTRTANSKLRGQTEALYILTKCNSTRFEFIFTNLVPGSPRLFTSVMAVHRAYETSKMYRDFKLRSALIQNKQLRLLPQEHVYDKINGVWNLSSDQGNLGTFFITNVRIEWHANMNDSFNVSIPYLQIRSIKIRDSKFGLALVIESSQQSGGYVLGFKIDPVEKLQESVKEINSLHKVYSASPIFGVDYEMEEKPQPLEALTVEQIQDDVEIDSDGHTDAFVAYFADGNKQQDREPVFSEELGLAIEKLKDGFTLQGLWEVMS [V188E]
MSVLDALWEDRDVRFDLSAQQMKTRPGEVLIDCLDSIEDTKGNNGDRGRLLVTNLRILWHSLALSRVNVSVGYNCILNITTRTANSKLRGQTEALYILTKCNSTRFEFIFTNLVPGSPRLFTSVMAVHRAYETSKMYRDFKLRSALIQNKQLRLLPQEHVYDKINGVWNLSSDQGNLGTFFITNVRIKWHANMNDSFNVSIPYLQIRSIKIRDSKFGLALVIESSQQSGGYVLGFKIDPVEKLQESVKEINSLHKVYSASPIFGVDYEMEEKPQPLEALTVEQIQDDVEIDSDGHTDAFVAYFADGNKQQDREPVFSEELGLAIEKLKDGFTLQGLWEVMS [V188K]
MSVLDALWEDRDVRFDLSAQQMKTRPGEVLIDCLDSIEDTKGNNGDRGRLLVTNLRILWHSLALSRVNVSVGYNCILNITTRTANSKLRGQTEALYILTKCNSTRFEFIFTNLVPGSPRLFTSVMAVHRAYETSKMYRDFKLRSALIQNKQLRLLPQEHVYDKINGVWNLSSDQGNLGTFFITNVRIVAHANMNDSFNVSIPYLQIRSIKIRDSKFGLALVIESSQQSGGYVLGFKIDPVEKLQESVKEINSLHKVYSASPIFGVDYEMEEKPQPLEALTVEQIQDDVEIDSDGHTDAFVAYFADGNKQQDREPVFSEELGLAIEKLKDGFTLQGLWEVMS [W189A]
MSVLDALWEDRDVRFDLSAQQMKTRPGEVLIDCLDSIEDTKGNNGDRGRLLVTNLRILWHSLALSRVNVSVGYNCILNITTRTANSKLRGQTEALYILTKCNSTRFEFIFTNLVPGSPRLFTSVMAVHRAYETSKMYRDFKLRSALIQNKQLRLLPQEHVYDKINGVWNLSSDQGNLGTFFITNVRIVEHANMNDSFNVSIPYLQIRSIKIRDSKFGLALVIESSQQSGGYVLGFKIDPVEKLQESVKEINSLHKVYSASPIFGVDYEMEEKPQPLEALTVEQIQDDVEIDSDGHTDAFVAYFADGNKQQDREPVFSEELGLAIEKLKDGFTLQGLWEVMS [W189E]
MSVLDALWEDRDVRFDLSAQQMKTRPGEVLIDCLDSIEDTKGNNGDRGRLLVTNLRILWHSLALSRVNVSVGYNCILNITTRTANSKLRGQTEALYILTKCNSTRFEFIFTNLVPGSPRLFTSVMAVHRAYETSKMYRDFKLRSALIQNKQLRLLPQEHVYDKINGVWNLSSDQGNLGTFFITNVRIVKHANMNDSFNVSIPYLQIRSIKIRDSKFGLALVIESSQQSGGYVLGFKIDPVEKLQESVKEINSLHKVYSASPIFGVDYEMEEKPQPLEALTVEQIQDDVEIDSDGHTDAFVAYFADGNKQQDREPVFSEELGLAIEKLKDGFTLQGLWEVMS [W189K]
MSVLDALWEDRDVRFDLSAQQMKTRPGEVLIDCLDSIEDTKGNNGDRGRLLVTNLRILWHSLALSRVNVSVGYNCILNITTRTANSKLRGQTEALYILTKCNSTRFEFIFTNLVPGSPRLFTSVMAVHRAYETSKMYRDFKLRSALIQNKQLRLLPQEHVYDKINGVWNLSSDQGNLGTFFITNVRIVWAANMNDSFNVSIPYLQIRSIKIRDSKFGLALVIESSQQSGGYVLGFKIDPVEKLQESVKEINSLHKVYSASPIFGVDYEMEEKPQPLEALTVEQIQDDVEIDSDGHTDAFVAYFADGNKQQDREPVFSEELGLAIEKLKDGFTLQGLWEVMS [H190A]
MSVLDALWEDRDVRFDLSAQQMKTRPGEVLIDCLDSIEDTKGNNGDRGRLLVTNLRILWHSLALSRVNVSVGYNCILNITTRTANSKLRGQTEALYILTKCNSTRFEFIFTNLVPGSPRLFTSVMAVHRAYETSKMYRDFKLRSALIQNKQLRLLPQEHVYDKINGVWNLSSDQGNLGTFFITNVRIVWEANMNDSFNVSIPYLQIRSIKIRDSKFGLALVIESSQQSGGYVLGFKIDPVEKLQESVKEINSLHKVYSASPIFGVDYEMEEKPQPLEALTVEQIQDDVEIDSDGHTDAFVAYFADGNKQQDREPVFSEELGLAIEKLKDGFTLQGLWEVMS [H190E]
MSVLDALWEDRDVRFDLSAQQMKTRPGEVLIDCLDSIEDTKGNNGDRGRLLVTNLRILWHSLALSRVNVSVGYNCILNITTRTANSKLRGQTEALYILTKCNSTRFEFIFTNLVPGSPRLFTSVMAVHRAYETSKMYRDFKLRSALIQNKQLRLLPQEHVYDKINGVWNLSSDQGNLGTFFITNVRIVWKANMNDSFNVSIPYLQIRSIKIRDSKFGLALVIESSQQSGGYVLGFKIDPVEKLQESVKEINSLHKVYSASPIFGVDYEMEEKPQPLEALTVEQIQDDVEIDSDGHTDAFVAYFADGNKQQDREPVFSEELGLAIEKLKDGFTLQGLWEVMS [H190K]
MSVLDALWEDRDVRFDLSAQQMKTRPGEVLIDCLDSIEDTKGNNGDRGRLLVTNLRILWHSLALSRVNVSVGYNCILNITTRTANSKLRGQTEALYILTKCNSTRFEFIFTNLVPGSPRLFTSVMAVHRAYETSKMYRDFKLRSALIQNKQLRLLPQEHVYDKINGVWNLSSDQGNLGTFFITNVRIVWHENMNDSFNVSIPYLQIRSIKIRDSKFGLALVIESSQQSGGYVLGFKIDPVEKLQESVKEINSLHKVYSASPIFGVDYEMEEKPQPLEALTVEQIQDDVEIDSDGHTDAFVAYFADGNKQQDREPVFSEELGLAIEKLKDGFTLQGLWEVMS [A191E]
MSVLDALWEDRDVRFDLSAQQMKTRPGEVLIDCLDSIEDTKGNNGDRGRLLVTNLRILWHSLALSRVNVSVGYNCILNITTRTANSKLRGQTEALYILTKCNSTRFEFIFTNLVPGSPRLFTSVMAVHRAYETSKMYRDFKLRSALIQNKQLRLLPQEHVYDKINGVWNLSSDQGNLGTFFITNVRIVWHKNMNDSFNVSIPYLQIRSIKIRDSKFGLALVIESSQQSGGYVLGFKIDPVEKLQESVKEINSLHKVYSASPIFGVDYEMEEKPQPLEALTVEQIQDDVEIDSDGHTDAFVAYFADGNKQQDREPVFSEELGLAIEKLKDGFTLQGLWEVMS [A191K]
MSVLDALWEDRDVRFDLSAQQMKTRPGEVLIDCLDSIEDTKGNNGDRGRLLVTNLRILWHSLALSRVNVSVGYNCILNITTRTANSKLRGQTEALYILTKCNSTRFEFIFTNLVPGSPRLFTSVMAVHRAYETSKMYRDFKLRSALIQNKQLRLLPQEHVYDKINGVWNLSSDQGNLGTFFITNVRIVWHAAMNDSFNVSIPYLQIRSIKIRDSKFGLALVIESSQQSGGYVLGFKIDPVEKLQESVKEINSLHKVYSASPIFGVDYEMEEKPQPLEALTVEQIQDDVEIDSDGHTDAFVAYFADGNKQQDREPVFSEELGLAIEKLKDGFTLQGLWEVMS [N192A]
MSVLDALWEDRDVRFDLSAQQMKTRPGEVLIDCLDSIEDTKGNNGDRGRLLVTNLRILWHSLALSRVNVSVGYNCILNITTRTANSKLRGQTEALYILTKCNSTRFEFIFTNLVPGSPRLFTSVMAVHRAYETSKMYRDFKLRSALIQNKQLRLLPQEHVYDKINGVWNLSSDQGNLGTFFITNVRIVWHAEMNDSFNVSIPYLQIRSIKIRDSKFGLALVIESSQQSGGYVLGFKIDPVEKLQESVKEINSLHKVYSASPIFGVDYEMEEKPQPLEALTVEQIQDDVEIDSDGHTDAFVAYFADGNKQQDREPVFSEELGLAIEKLKDGFTLQGLWEVMS [N192E]
MSVLDALWEDRDVRFDLSAQQMKTRPGEVLIDCLDSIEDTKGNNGDRGRLLVTNLRILWHSLALSRVNVSVGYNCILNITTRTANSKLRGQTEALYILTKCNSTRFEFIFTNLVPGSPRLFTSVMAVHRAYETSKMYRDFKLRSALIQNKQLRLLPQEHVYDKINGVWNLSSDQGNLGTFFITNVRIVWHAKMNDSFNVSIPYLQIRSIKIRDSKFGLALVIESSQQSGGYVLGFKIDPVEKLQESVKEINSLHKVYSASPIFGVDYEMEEKPQPLEALTVEQIQDDVEIDSDGHTDAFVAYFADGNKQQDREPVFSEELGLAIEKLKDGFTLQGLWEVMS [N192K]
MSVLDALWEDRDVRFDLSAQQMKTRPGEVLIDCLDSIEDTKGNNGDRGRLLVTNLRILWHSLALSRVNVSVGYNCILNITTRTANSKLRGQTEALYILTKCNSTRFEFIFTNLVPGSPRLFTSVMAVHRAYETSKMYRDFKLRSALIQNKQLRLLPQEHVYDKINGVWNLSSDQGNLGTFFITNVRIVWHANANDSFNVSIPYLQIRSIKIRDSKFGLALVIESSQQSGGYVLGFKIDPVEKLQESVKEINSLHKVYSASPIFGVDYEMEEKPQPLEALTVEQIQDDVEIDSDGHTDAFVAYFADGNKQQDREPVFSEELGLAIEKLKDGFTLQGLWEVMS [M193A]
